The source of these data is paper PMC6007958, “Identification, characterization and application of a new peptide against anterior gradient homolog 2 (AGR2)” (Oncotarget, 2018).

One assay has as its system MDA-MB-231. The assay can be described thus: Luminescent cytotoxicity (ATP viability, CellTiter-Glo) assay. Format: cell-based. To be noted: MDA-MB-231, 48 hours, eight concentrations, 4PL fit, read-out: IC50, cell viability. As to the method: (§1) Cells were seeded into 96-well White with Clear Flat Bottom plates (Costar). Cell density was optimized for each cell type, PC-3 and MDA-MB-231 were seeded at 0.24×10^6 cells/mL or 0.06×10^6 cells/mL. After 12 hours, treatments were added, with the stock concentration for Taxol at 400 nM (Selleckchem), H10 peptide was 200 μg/mL and the control peptide was 200 μg/mL. We tested a total of eight concentrations using three-fold serial dilutions from the stock concentration. After 48 hours of treatment, we used the CellTiter-Glo Luminescent Cell Viability Assay (Promega) according to the manufacturer's protocol. The data was analyzed on Prism software using “log(inhibitor) vs. response” option. IC50 was calculated using the 4PL equation 1 as above.
A general note: Cellular ATP, detected with luciferase, serves as a proxy for viable cell number.

For another assay, the system named is PC-3. The description is as above. Format: cell-based. To be noted: PC-3, 48 hours, eight concentrations, 4PL fit, read-out: IC50, cell viability. As to the method: as §1
The subject of the next assay is MDA-MB-231 cells. The assay can be described thus: Oris exclusion zone cell migration assay. Format: cell-based. Particulars: MDA-MB-231, 48 hours; H10 5 μmoles/L (10 μg/ml), taxol 5 nM, control peptide 10 μg/ml. As to the method:
(§2) Cells were seeded into Oris™ 96-well plate with silicon stoppers in place (CMA1.101). Cell density was optimized for each cell type, PC-3 and MDA-MB-231 were seeded at 2.5×10^5 cells/mL or 6×10^4 cells/mL. Stoppers were removed 12 hours post seeding according to the manufacturer's protocol and treatments were added, Taxol (5 nM) (Selleckchem), H10 peptide (10 μg/ml), scrambled peptide (10 μg/ml), mouse anti-AGR2 antibody (1:50 of 2 μg/ml) (Santa Cruz Biotechnology), mouse-IgG (Santa Cruz Biotechnology), DMSO as control. After 48 hours, growth medium was aspirated and cells were fixed with 4% paraformaldehyde (Alfa Aesar) for 15 minutes at RT and washed with PBS. Cells were stained with Rhodamine phalloidin (Biotium) 1:40 and Hoechst (Invitrogen) 1:10,000 for 20 minutes at RT and washed with PBS.
(§3) Imaging was performed on a Zeiss Observer.Z1 microscope at 2.5x objective with AxioCam MRm camera and Axio Vision 4.8 software. Images were processed using ImageJ software package ( http://rsb.info.nih.gov/ij/) and following the cell migration method previously designed. The data was analyzed using GraphPad Prism 7.

The target of the next assay is T1, AGR2 (Homo sapiens, UniProt O95994).
T1 construct: histidine tag (N, cleaved yes); made in house; host or cells: E. coli BL21 de3
T1 sequence (O95994 with tags, fused parts or gaps): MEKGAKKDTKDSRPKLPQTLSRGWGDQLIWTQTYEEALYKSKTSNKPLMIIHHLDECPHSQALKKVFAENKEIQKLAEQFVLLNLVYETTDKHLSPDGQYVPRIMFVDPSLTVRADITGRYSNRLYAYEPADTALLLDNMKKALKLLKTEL
Put plainly: SPR competition, AGR2 binding to immobilized H10 in presence of free peptide. To be noted: peptide 500 nM co-/pre-incubated with AGR2 500 nM. As to the method:
SPR measurements were carried out on a Biacore T200 (GE) and data was analyzed using Biacore T200 Evaluation Software (version 1.0). Data was analyzed for a 1:1, two-stage and bivalent binding model. Average affinities were obtained from independent experimental repeats and errors are given as mean absolute deviations. Measurements were carried out at flow rates of 20 μL/min and confirmed experimentally to avoid mass transfer limitation. For direct binding studies of AGR2 to biotinylated H10-peptide a carboxymethyl-Dextran coated CM5 chip was coated with Streptavidin using standard amine coupling chemistry. Residual activated carboxyl groups were blocked with 1,2-Ethylenediamine. In contrast to conventional ethanolamine blocking, this procedure introduces positive charges to partially compensate the negative surface charge and reduce unspecific binding by AGR2. Biotinylated peptide was loaded and remaining free biotin sites were blocked by incubating the chip in biotin containing buffer over night to allow for biotinylated peptides to be used in competition assays. Optimal binding and minimal unspecific interaction was found for a running buffer consisting of Tris (100 mM, pH 7.5), NaCl (150 mM) and MgCl2 (10 mM).

In the next assay the test system is PC-3 cells. Put plainly: Oris exclusion zone cell migration assay. Particulars: PC-3, 48 hours; taxol 5 nM, H10 10 μg/ml, control peptide 10 μg/ml, AGR2 antibody; fluorescent microscopy of cell-free zone. Format: cell-based. The procedure:
as §2, §3

The subject of assay [1] is EGFR phosphorylation in PC3 cells. Put plainly: Western blot of EGFR / p-EGFR-Y1068. To be noted: PC3 cells dosed 16 hours, p-EGFR-Y1068 by western blot. Format: cell-based. The procedure: We sought to ascertain a potential mechanism leading to decreased viability of cells upon exposure to H10 by examining cancer related pathways that have been linked with AGR2. […] We investigated the impact of H10 on EGFR phosphorylation as a possible mechanism of action. PC3 cells were dosed with H10 for 16 hours and the levels of EGFR and p-EGFR-Y1068 were analyzed by western blot (Figure 5C). […] Since amphiregulin is downstream of the HIPPO pathway, we also assessed the phosphorylation of the HIPPO effector, YAP1. We hypothesized that H10 may indirectly downregulate EGFR phosphorylation by altering activity of YAP1 (phosphorylation of YAP1 prevents […] translocation to the nucleus and transcription of amphiregulin [24]). Cell lysates from PC3 cells treated with H10 and the scrambled peptide were subject to immunoblot (Figure 5C).
(In general: A western blot detects proteins with antibodies after separation by electrophoresis.)

In a further assay the target is T2, H10 peptide (biotin-…).
T2 chain: GGGSGMKMQVRIYLV
The assay can be described thus: ELISA. Particulars: chain shown with the change, read off a plot.

For assay [2], the target named is T3, extracellular AGR2 (eAGR2) in spent media of cancer cell lines (human (endogenous in MCF-7 and 22Rv1), UniProt O95994 21-175).
T3 sequence (looked up): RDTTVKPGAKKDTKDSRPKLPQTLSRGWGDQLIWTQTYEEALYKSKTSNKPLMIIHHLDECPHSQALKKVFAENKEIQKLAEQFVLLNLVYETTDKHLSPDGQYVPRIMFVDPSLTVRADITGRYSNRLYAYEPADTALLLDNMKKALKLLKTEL
Put plainly: cell-based or functional assay.

[3] abbreviates: AGR2 100 ng/ml, parent: est. 61.
Setting [4] is: AGR2 200 ng/ml, parent: est. 76.
Where [5] appears, read: AGR2 400 ng/ml, parent: est. 82.
The mark [6] stands for this setting: AGR2 600 ng/ml, parent: est. 83.
The mark [7] stands for this setting: AGR2 800 ng/ml, parent: est. 91.

For orientation: IC50 means the point on the concentration scale where inhibition reaches its midpoint.

No end group written: not given here. *: point of attachment. Biotin = O=C1N[C@H]2[C@H](CS[C@H]2CCCCC(=O)*)N1

For “Biotin-GSGSGSGSGSGSGSS [control peptide, biotinylated Gly/Ser control peptide, length 15]”, the IC50 with MDA-MB-231 and with PC-3 was more than 100 µM throughout. The “inhibition of cell migration” value with MDA-MB-231 cells was “did not alter cell migration”. Besides, the “suppression of AGR2 binding to immobilized H10 by free peptide” value at AGR2 is “largely ineffective”.

Turning to `CC(=O)O[C@H]1C(=O)[C@@]2(C)[C@H]([C@H](OC(=O)c3ccccc3)[C@]3(O)C[C@H](OC(=O)[C@H](O)[C@@H](NC(=O)c4ccccc4)c4ccccc4)C(C)=C1C3(C)C)[C@]1(OC(C)=O)CO[C@@H]1C[C@@H]2O` [taxol], the “inhibition of cell migration” value in the assay with PC-3 cells was “inhibits cell migration of PC-3 cells”.

Take GGGSG VMLKYMIQRV [scrambled peptide]: in assay [1], the “concentration sufficient to downregulate EGFR phosphorylation” value is more than 20 µM.

B1: Δ27 AGR2 (recombinant anterior gradient protein 2 without the ER leader sequence), O95994 E96K (protein)
chain: GAKKDTKDSRPKLPQTLSRGWGDQLIWTQTYEEALYKSKTSNKPLMIIHHLDECPHSQALKKVFAENKKIQKLAEQFVLLNLVYETTDKHLSPDGQYVPRIMFVDPSLTVRADITGRYSNRLYAYEPADTALLLDNMKKALKLLKTELGLNDIFEAQKIEWHE
For B1, the response is 30 % of binding with H10 peptide (biotin-…) (setting [3]); 27 % of binding in the assay with H10 peptide (biotin-…) (setting [4]); 30 % of binding with H10 peptide (biotin-…) (setting [5]); 36 % of binding with H10 peptide (biotin-…) (setting [6]); 55 % of binding with H10 peptide (biotin-…) (setting [7]).

B2: Δ27 AGR2 (recombinant anterior gradient protein 2 without the ER leader sequence), O95994 E60Q (protein)
chain: GAKKDTKDSRPKLPQTLSRGWGDQLIWTQTYEQALYKSKTSNKPLMIIHHLDECPHSQALKKVFAENKEIQKLAEQFVLLNLVYETTDKHLSPDGQYVPRIMFVDPSLTVRADITGRYSNRLYAYEPADTALLLDNMKKALKLLKTELGLNDIFEAQKIEWHE
On to B2, for which the response with H10 peptide (biotin-…) (setting [3]) was 42 % of binding; with H10 peptide (biotin-…) (setting [4]) it was 42 % of binding; in the assay with H10 peptide (biotin-…) (setting [5]), 46 % of binding; with H10 peptide (biotin-…) (setting [6]), 51 % of binding; in the assay with H10 peptide (biotin-…) (setting [7]), 57 % of binding.

As to Biotin-GGGSGMKMQVRIYLV [H10 peptide (biotin-GGGSGMKMQVRIYLV)], in assay [2], the “ATP viability assay (CellTiter-Glo), MDA-MB-231 cells, 48 hours, IC50 of H10” value stood at 12 µM and the “ATP viability assay (CellTiter-Glo), PC-3 cells, 48 hours, IC50 of H10” value came to 9 µM.
